Reference: the supplement of paper PMC9112550, “Optimization of the antimicrobial peptide Bac7 by deep mutational scanning” (BMC Biology, 2022)

System: Escherichia coli TOP10
Test: shrunken log2 fold change of peptide-encoding DNA abundance (4.5 h post-induction vs induction); higher = less antimicrobial activity (less host growth inhibition)
Settings: time post-induction: 4.5 h; library: site-saturation at positions 5, 18, 19, 20
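Further: peptides expressed intracellularly from a pBAD plasmid library in pooled LB shake-flask culture, induced with 0.3% L-arabinose, DNA abundance read by NGS, three biological replicates, DESeq2 with apeglm shrinkage.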

Sequence | shrunken log2 fold change
RRIRARPPRLPRPRPRPQCAPRP | 0.216
RRIRARPPRLPRPRPRPQDPPRP | 0.557
RRIRARPPRLPRPRPRPQGEPRP | 0.294
RRIRARPPRLPRPRPRPQHFPRP | 3.55
RRIRARPPRLPRPRPRPQLIPRP | 0.184
RRIRARPPRLPRPRPRPQLLPRP | 0.527
RRIRARPPRLPRPRPRPQMEPRP | -0.154
RRIRARPPRLPRPRPRPQMPPRP | 0.465
RRIRARPPRLPRPRPRPQNMPRP | -0.497
RRIRARPPRLPRPRPRPQPPPRP | 0.715
RRIRARPPRLPRPRPRPQPSPRP | 0.555
RRIRARPPRLPRPRPRPQQGPRP | -0.0917
RRIRARPPRLPRPRPRPQQWPRP | 0.2
RRIRARPPRLPRPRPRPQRDPRP | 0.225
RRIRARPPRLPRPRPRPQRWPRP | 0.172
RRIRARPPRLPRPRPRPQSCPRP | -0.0161
RRIRARPPRLPRPRPRPQSEPRP | 0.152
RRIRARPPRLPRPRPRPQTVPRP | 0.129
RRIRARPPRLPRPRPRPQWCPRP | -0.0868
RRIRARPPRLPRPRPRPQWHPRP | -0.0862
RRIRARPPRLPRPRPRPQYAPRP | 0.0596
RRIRARPPRLPRPRPRPQYGPRP | -0.442
RRIRARPPRLPRPRPRPQYWPRP | -0.167
RRIRARPPRLPRPRPRPRAVPRP | 1.11
RRIRARPPRLPRPRPRPRDAPRP | 0.91

Sequence | shrunken log2 fold change
RRIRARPPRLPRPRPRPREDPRP | 0.879
RRIRARPPRLPRPRPRPREWPRP | -0.0253
RRIRARPPRLPRPRPRPRFDPRP | 0.236
RRIRARPPRLPRPRPRPRGMPRP | 0.32
RRIRARPPRLPRPRPRPRHGPRP | 0.343
RRIRARPPRLPRPRPRPRIMPRP | 0.121
RRIRARPPRLPRPRPRPRKEPRP | -0.0116
RRIRARPPRLPRPRPRPRKLPRP | 0.424
RRIRARPPRLPRPRPRPRKNPRP | 0.472
RRIRARPPRLPRPRPRPRLYPRP | 0.501
RRIRARPPRLPRPRPRPRNCPRP | 0.849
RRIRARPPRLPRPRPRPRPHPRP | 0.513
RRIRARPPRLPRPRPRPRQSPRP | 0.233
RRIRARPPRLPRPRPRPRQVPRP | 0.2
RRIRARPPRLPRPRPRPRREPRP | 0.631
RRIRARPPRLPRPRPRPRRFPRP | 0.603
RRIRARPPRLPRPRPRPRRGPRP | 0.759
RRIRARPPRLPRPRPRPRRLPRP | 0.537
RRIRARPPRLPRPRPRPRTVPRP | 0.457
RRIRARPPRLPRPRPRPRVHPRP | 0.555
RRIRARPPRLPRPRPRPRWPPRP | 0.666
RRIRARPPRLPRPRPRPRYGPRP | -0.0744
RRIRARPPRLPRPRPRPSANPRP | 0.344
RRIRARPPRLPRPRPRPSCEPRP | 0.128
RRIRARPPRLPRPRPRPSCHPRP | -0.138

Sequence | shrunken log2 fold change
RRIRARPPRLPRPRPRPSCRPRP | 0.248
RRIRARPPRLPRPRPRPSERPRP | -0.132
RRIRARPPRLPRPRPRPSEYPRP | -0.264
RRIRARPPRLPRPRPRPSFAPRP | 0.432
RRIRARPPRLPRPRPRPSFHPRP | -0.215
RRIRARPPRLPRPRPRPSGIPRP | 0.0311
RRIRARPPRLPRPRPRPSHAPRP | 0.333
RRIRARPPRLPRPRPRPSHDPRP | 0.225
RRIRARPPRLPRPRPRPSHRPRP | 0.0188
RRIRARPPRLPRPRPRPSKLPRP | -0.118
RRIRARPPRLPRPRPRPSKPPRP | -0.281
RRIRARPPRLPRPRPRPSMTPRP | 0.2
RRIRARPPRLPRPRPRPSQFPRP | -0.0956
RRIRARPPRLPRPRPRPSQGPRP | -0.168
RRIRARPPRLPRPRPRPSQVPRP | 0.0429
RRIRARPPRLPRPRPRPSRCPRP | 0.228
RRIRARPPRLPRPRPRPSRDPRP | 0.199
RRIRARPPRLPRPRPRPSSWPRP | 0.158
RRIRARPPRLPRPRPRPSTMPRP | -0.237
RRIRARPPRLPRPRPRPSTPPRP | 0.235
RRIRARPPRLPRPRPRPSYPPRP | -0.312
RRIRARPPRLPRPRPRPTAKPRP | 1.36
RRIRARPPRLPRPRPRPTAMPRP | 0.822
RRIRARPPRLPRPRPRPTAYPRP | 0.223
RRIRARPPRLPRPRPRPTCNPRP | 0.327

Sequence | shrunken log2 fold change
RRIRARPPRLPRPRPRPTCRPRP | 0.592
RRIRARPPRLPRPRPRPTCTPRP | 0.764
RRIRARPPRLPRPRPRPTDMPRP | -0.0247
RRIRARPPRLPRPRPRPTEEPRP | -0.082
RRIRARPPRLPRPRPRPTESPRP | 0.659
RRIRARPPRLPRPRPRPTGMPRP | 0.52
RRIRARPPRLPRPRPRPTHQPRP | 0.528
RRIRARPPRLPRPRPRPTIPPRP | 0.132
RRIRARPPRLPRPRPRPTKCPRP | 0.141
RRIRARPPRLPRPRPRPTKGPRP | 0.308
RRIRARPPRLPRPRPRPTKRPRP | 0.247
RRIRARPPRLPRPRPRPTKSPRP | 0.032
RRIRARPPRLPRPRPRPTLLPRP | 0.286
RRIRARPPRLPRPRPRPTLRPRP | 0.148
RRIRARPPRLPRPRPRPTLTPRP | 1.08
RRIRARPPRLPRPRPRPTMMPRP | 0.496
RRIRARPPRLPRPRPRPTMTPRP | 0.9
RRIRARPPRLPRPRPRPTNVPRP | 0.0619
RRIRARPPRLPRPRPRPTPQPRP | 0.745
RRIRARPPRLPRPRPRPTPRPRP | 1.5
RRIRARPPRLPRPRPRPTQAPRP | 1.06
RRIRARPPRLPRPRPRPTQCPRP | 0.391
RRIRARPPRLPRPRPRPTQHPRP | 0.698
RRIRARPPRLPRPRPRPTRMPRP | 0.865
RRIRARPPRLPRPRPRPTSDPRP | 0.954

Sequence | shrunken log2 fold change
RRIRARPPRLPRPRPRPTSIPRP | 0.109
RRIRARPPRLPRPRPRPTWPPRP | 1.13
RRIRARPPRLPRPRPRPVAAPRP | 1.54
RRIRARPPRLPRPRPRPVAQPRP | 0.661
RRIRARPPRLPRPRPRPVAWPRP | 0.474
RRIRARPPRLPRPRPRPVCHPRP | 0.321
RRIRARPPRLPRPRPRPVDMPRP | -0.109
RRIRARPPRLPRPRPRPVDPPRP | 0.291
RRIRARPPRLPRPRPRPVEDPRP | 0.0532
RRIRARPPRLPRPRPRPVFMPRP | 0.0722
RRIRARPPRLPRPRPRPVGAPRP | 0.731
RRIRARPPRLPRPRPRPVGFPRP | 0.516
RRIRARPPRLPRPRPRPVIQPRP | 0.0904
RRIRARPPRLPRPRPRPVLEPRP | 0.488
RRIRARPPRLPRPRPRPVLYPRP | 0.0232
RRIRARPPRLPRPRPRPVMKPRP | -0.205
RRIRARPPRLPRPRPRPVNMPRP | -0.527
RRIRARPPRLPRPRPRPVQRPRP | 0.615
RRIRARPPRLPRPRPRPVRCPRP | 0.966
RRIRARPPRLPRPRPRPVRIPRP | 0.00598
RRIRARPPRLPRPRPRPVRKPRP | 0.763
RRIRARPPRLPRPRPRPVRNPRP | 0.142
RRIRARPPRLPRPRPRPVSRPRP | 0.661
RRIRARPPRLPRPRPRPVVAPRP | 0.604
RRIRARPPRLPRPRPRPVWAPRP | 0.305

Sequence | shrunken log2 fold change
RRIRARPPRLPRPRPRPVWTPRP | 0.527
RRIRARPPRLPRPRPRPVYVPRP | 0.111
RRIRARPPRLPRPRPRPWADPRP | 0.0394
RRIRARPPRLPRPRPRPWCIPRP | -0.319
RRIRARPPRLPRPRPRPWCMPRP | -0.223
RRIRARPPRLPRPRPRPWCQPRP | -0.031
RRIRARPPRLPRPRPRPWFLPRP | -0.399
RRIRARPPRLPRPRPRPWHSPRP | 0.0528
RRIRARPPRLPRPRPRPWIFPRP | -0.114
RRIRARPPRLPRPRPRPWIVPRP | -0.0598
RRIRARPPRLPRPRPRPWKIPRP | -0.117
RRIRARPPRLPRPRPRPWLMPRP | 0.0299
RRIRARPPRLPRPRPRPWMCPRP | -0.12
RRIRARPPRLPRPRPRPWQMPRP | -0.0506
RRIRARPPRLPRPRPRPWQPPRP | 0.0351
RRIRARPPRLPRPRPRPWRTPRP | 0.14
RRIRARPPRLPRPRPRPWVGPRP | 0.271
RRIRARPPRLPRPRPRPWWGPRP | 3.62
RRIRARPPRLPRPRPRPYALPRP | 0.0681
RRIRARPPRLPRPRPRPYDFPRP | -0.772
RRIRARPPRLPRPRPRPYFCPRP | -0.346
RRIRARPPRLPRPRPRPYGQPRP | -0.163
RRIRARPPRLPRPRPRPYKAPRP | -0.302
RRIRARPPRLPRPRPRPYKQPRP | -0.295
RRIRARPPRLPRPRPRPYLCPRP | -0.291
